{"source": "patent US11591582", "about": "“TCRα homing endonuclease variants” (2seventy bio, Inc.)", "binders": {"B1": {"name": "TCRα megaTAL target site (dsDNA)", "DNA 1": "AAATCCAGTGACAAGTCTGTCTGCCTATTCACCGATTTT", "DNA 2": "AAAATCGGTGAATAGGCAGACAGACTTGTCACTGGATTT"}}, "molecular_target": "T1, TCRα2.1 megaTAL (10.5 RVD) (synthetic)", "T1 chain": "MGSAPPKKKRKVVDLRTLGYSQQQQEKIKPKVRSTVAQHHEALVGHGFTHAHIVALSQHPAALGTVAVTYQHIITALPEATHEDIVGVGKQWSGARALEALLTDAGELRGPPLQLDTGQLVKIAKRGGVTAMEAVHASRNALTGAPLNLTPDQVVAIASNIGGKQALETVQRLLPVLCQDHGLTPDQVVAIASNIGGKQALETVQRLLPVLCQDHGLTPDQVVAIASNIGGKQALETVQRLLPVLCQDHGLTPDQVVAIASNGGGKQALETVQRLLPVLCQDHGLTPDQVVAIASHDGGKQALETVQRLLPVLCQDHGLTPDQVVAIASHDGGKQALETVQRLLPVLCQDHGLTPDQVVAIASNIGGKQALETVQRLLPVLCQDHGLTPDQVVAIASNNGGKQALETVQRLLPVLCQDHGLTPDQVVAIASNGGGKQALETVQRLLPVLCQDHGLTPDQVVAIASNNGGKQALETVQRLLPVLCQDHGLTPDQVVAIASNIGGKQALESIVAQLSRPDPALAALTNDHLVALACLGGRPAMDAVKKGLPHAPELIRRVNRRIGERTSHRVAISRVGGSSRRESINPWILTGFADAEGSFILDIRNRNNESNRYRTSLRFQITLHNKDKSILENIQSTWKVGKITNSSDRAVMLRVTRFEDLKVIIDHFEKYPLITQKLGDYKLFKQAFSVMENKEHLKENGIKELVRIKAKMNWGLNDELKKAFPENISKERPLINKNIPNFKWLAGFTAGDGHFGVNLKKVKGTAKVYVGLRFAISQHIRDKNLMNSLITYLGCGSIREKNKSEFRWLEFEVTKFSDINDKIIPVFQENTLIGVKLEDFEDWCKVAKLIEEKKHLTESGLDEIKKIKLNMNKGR", "assay": "cell_activity; primary human T cells, CD3 knockdown", "conditions": "tags: TALE fusion", "source_text": "A single amino acid substitution, E178D, that increased catalytic activity in another I-OnuI variant was inserted at the active site of the TCRα2.0 megaTAL to generate the TCRα2.1 megaTAL (SEQ ID NO: 8). In vitro transcribed mRNA encoding the TCRα2.1 megaTAL (e.g., SEQ ID NO: 15) was electroporated into primary human T cells. The TCRα2.1 megaTAL increased CD3 knockdown 10-fold compared to the TCRα2.0 megaTAL. FIG. 5.", "data": [{"binder": "B1", "values": [{"measurement": "activity", "value": 10, "unit": "fold vs TCRα2.0 megaTAL"}]}]}
